# Measured values: patent US20200400655A1, “RATIOMETRIC BRET MEASUREMENTS OF ATP WITH A GENETICALLY-ENCODED LUMINESCENT SENSOR” (Purdue Research Foundation, priority 2019, published 2020)
# B1: mScarlet-ε-NanoLuc: BRET-only ATP sensor: mScarlet (N-terminus), B. subtilis ε subunit, NanoLuc (C-terminus); SEQ ID NO:1 (protein)
# chain: MVSKGEAVIKEFMRFKVHMEGSMNGHEFEIEGEGEGRPYEGTQTAKLKVTKGGPLPFSWDILSPQFMYGSRAFTKHPADIPDYYKQSFPEGFKWERVMNFEDGGAVTVTQDTSLEDGTLIYKVKLRGTNFPPDGPVMQKKTMGWEASTERLYPEDGVLKGDIKMALRLKDGGRYLADFKTTYKAKKPVQMPGAYNVDRKLDITSHNEDYTVVEQYERSEGRHSTGRHIDMKTVKVNITTPDGPVYDADIEMVSVRAESGDLGILPGHIPTKAPLKIGAVRLKKDGQTEMVAVSGGTVEVRPDHVTINAQAAETAEGIDKERAEAARQRAQERLNSQSDDTDIRRAELALQRALNRLDVAGKANEFMLEDFVGDWRQTAGYNLDQVLEQGGVSSLFQNLGVSVTPIQRIVLSGENGLKIDIHVIIPYEGLSGDQMGQIEKIFKVVYPVDDHHFKVILHYGTLVIDGVTPNMIDYFGRPYEGIAVFDGKKITVTGTLWNGNKIIDERLINPDGSLLFRVTINGVTGWRLCERILA
# modifications: mScarlet-e-NanoLuc
# Legend:
# [1] = ATP dose-response of purified mScarlet-ε-NanoLuc, luminescence BRET ratio on microplate reader; type: binding; details: purified protein; for BRET ratio: n=3
# Excerpt: (§1) Protein Engineering and Library Screen. Sensors were constructed by Gibson Assembly using the NEB HiFi kit, sub-cloned into the pRSETB vector for expression as His-tagged protein in BL21(DE3) E. coli, and purified by nickel-affinity chromatography. CeNL/pcDNA3 was a gift from Takeharu Nagai (Addgene plasmid #85199), pcDNA3-mNeonGreen was a gift from Richard Day (Indiana University), pCytERm-mScarlet_N1 was a gift from Dorus Gadella (Addgene plasmid #85066), and pBad-HisB-RRvT (Addgene plasmid #87364) and pBad-HisB-GRvT (Addgene plasmid #87363) were gifts from Robert Campbell. The fluorescence and luminescence ATP dose-response curves for purified protein solutions were measured on a BioTek Synergy H4 multi-mode microplate reader at ambient temperature. Luminescence was also measured using a Spectral Instruments Ami HT. Plasmids generated in this study are distributed via Addgene.
# The fluorescence and luminescence of purified sensor proteins were investigated in assay buffer (50 mM MOPS-KOH, 50 mM KCl, 0.5 mM MgCl2, and 0.05% Triton X-100, pH 7.3) in a 96-well plate using a BioTek Synergy H4 multi-mode microplate reader at ambient temperature. For FRET library screening, 420/50 and 485/20 nm excitation filters and 485/20, 528/20, and 620/15 nm emission filters were used. For BRET screening, 20 μM coelenterazine-h was used as a substrate of NanoLuc and 450/50, 485/20, 528/20, and 620/15 nm emission filters were used. For characterization of mScarlet-ε-NanoLuc, 20 μM coelenterazine-h was applied to a reaction solution containing the purified sensor protein and 0-10 mM ATP in assay buffer. Luminescence spectra were scanned from 400 to 650 nm. Emissions of NanoLuc and mScarlet were measured using 450/50 and 620/15 nm emission filters, respectively, and the BRET efficiency was obtained by calculating the emission ratio of mScarlet/NanoLuc. Luminescence was also measured using a Spectral Instruments Ami HT with 510/20 and 650/20 nm emission filters (binning 2×2, FOV 25 cm, f-stop 1.2). Purified mScarlet-ε-NanoLuc protein in assay buffer with 0-10 mM ATP was imaged with a 1 sec exposure time after the addition of 20 μM coelenterazine-h. For measurements at different concentrations (1-100 nM) of mScarlet-ε-NanoLuc protein, the purified protein was mixed with 10 mM ATP or 0 mM ATP and imaged after the addition of 20 μM coelenterazine-h with a 5 sec exposure time for a total 30 min. Regions of interest were drawn over each well for all filter sets, and the average radiance was determined.
# [2] = Library screen: FRET and BRET dynamic range of purified sensors after addition of saturating ATP; type: binding
# Excerpt: as §1, with “Plasmids generated in this study are distributed via Addgene.” left out
# (§2) The fluorescence and luminescence of purified sensor proteins were investigated in assay buffer (50 mM MOPS-KOH, 50 mM KCl, 0.5 mM MgCl2, and 0.05% Triton X-100, pH 7.3) in a 96-well plate using a BioTek Synergy H4 multi-mode microplate reader at ambient temperature. […] Luminescence spectra were scanned from 400 to 650 nm. Emissions of NanoLuc and mScarlet were measured using 450/50 and 620/15 nm emission filters, respectively, and the BRET efficiency was obtained by calculating the emission ratio of mScarlet/NanoLuc. […]
# [3] = Ratiometric BRET imaging of purified mScarlet-ε-NanoLuc protein on SI Ami HT whole-animal imaging system; type: binding; details: protein solutions
# Excerpt: as §1, with “Plasmids generated in this study are distributed via Addgene.” left out
# as §2
# [4] = system: HEK293A cells; test: Live single-cell BRET microscopy with metabolic inhibition; type: cell-based; details: metabolic inhibition with 10 mM 2DG and 2.5 μM oligomycin A, ambient temperature
# Protocol: Live single-cell microscopy. The sensor genes were sub-cloned into the GW1 mammalian expression vector, and HEK293A cells were transfected by the calcium phosphate method. Cells were imaged with 30 second exposure times and 2 minute imaging interval on an Olympus IX83 microscope with a 40× 1.35 NA Apo oil objective, an Andor Xyla 4.2 sCMOS camera at 2-by-2 pixel binning, and 470/24 nm and 632/60 nm emission filters. Just prior to the addition of furimazine, well volume was exchanged twice with imaging media without glucose. After adding furimazine, a three point baseline was acquired. […] Cells were imaged for ˜30 minutes until luminescence decayed to background. Image backgrounds were subtracted before calculating the ratio images of the luminescence channels using ImageJ. […]
# After removing the plate from the incubator, cell growth media was exchanged for imaging media (15 mM HEPES, 120 mM NaCl, 3 mM KCl, 3 mM NaHCO3, 1.25 mM NaH2PO4, 10 mM glucose, 2 mM CaCl2, 1 mM MgCl2). Imaging regions were determined using mScarlet fluorescence and DIC. […] Cells were imaged until luminescence decayed to background (20-30 minutes). Image backgrounds were subtracted (rolling ball radus 100 pixels) before calculating the ratio images of the luminescence channels using ImageJ. […] For FIG. 3, binary masks were generated using channel luminescence to remove pixels in ratio image corresponding to background. […]
# [5] = system: HEK293A cells; test: Bioluminescence imaging of adherent sensor-expressing cells in Spectral Ami, glucose vs metabolic inhibitors; type: cell-based; details: for mScarlet-ε-NanoLuc ratio signal: n=6
# Protocol: HEK293A cells were transfected with plasmids carrying mScarlet-ε-NanoLuc by calcium phosphate method. One day after transfection, cells were passaged onto a 96-well plate at different cell densities from 1,250 to 20,000 cells per well. After an additional 24-48 hours, imaging was performed using a spectral Ami with 510/20 nm and 650/20 nm filters (5 sec exposure time, binning 2×2, FOV 25 cm, f-stop 1.2) immediately after the addition of 20 μM coelenterazine-h.
# We first validated that we could measure differences in energy metabolism using adherent cell cultures. HEK293A cells expressing mScarlet-ε-NanoLuc were seeded at different densities, from 62,500 cells/cm^2 down to 4,000 cell/cm^2 to determine the sensitivity of detection in the Spectral Ami system. […] Thus, the sensor effectively detects metabolic differences in live cells in a dish within the animal imager.
# [6] = Whole-animal imaging of purified sensor protein placed subcutaneously in mice; type: in vivo, Balb/c mice; details: 10 mM vs 0 mM ATP, subcutaneous hindlimb, unshaved mice, n=3
# Protocol: (§3) Animal Imaging System. All animal procedures were performed in strict accordance with recommendations provided in the National Institutes of Health (NIH) Guide for the Care and Use of Laboratory Animals, according to protocols approved by the Purdue Animal Care and Use Committee and the Purdue University Laboratory Animal Program to minimize pain and suffering. Male and female adult Balb/c and FVB mice were sacrificed and then injected with protein solution or live cells subcutaneously in the hind limb area. NanoLuc substrate, either 20 μM coelenterazine-h or 0.5× Promega Nano-Glo furimazine solution, was mixed with the sample just prior to injection. Protein, cells, and animals were imaged at ambient temperature. […] Therefore, in this study we used the SI Ami HT equipped with a 510/20 nm and 650/20 nm emission filters for all subsequent experiments.
# For imaging of purified protein in mice, mScarlet-ε-NanoLuc protein pre-equilibrated with 0 mM or 10 mM ATP was mixed with 20 μM coelenterazine-h. The reaction mixture was enclosed in a custom plastic tube and placed subcutaneously in the left (0 mM ATP) and right (10 mM ATP) hindlimb areas of adult Balb/c mice carcass. The sequential imaging was immediately performed using a spectral Ami with 510/20 and 650/20 nm filters (30 sec exposure time, binning 2×2, FOV 25, f-stop 1.2). […]
# [7] = system: HEK293A cells; test: Whole-animal imaging of sensor-expressing live cell suspensions injected subcutaneously in mice; type: in vivo; details: 10^6 live cells subcutaneous, unshaved adult FVB mice, n=6
# Protocol: as §3
# For imaging of purified protein in mice, mScarlet-ε-NanoLuc protein pre-equilibrated with 0 mM or 10 mM ATP was mixed with 20 μM coelenterazine-h. […]
# We next carried out ratiometric imaging of live cells injected in whole animals. […] The total luminescence intensity provides an indicator of the total protein expression level, and critically we observed that the BRET ratio was dependent on the metabolic condition only and was independent of the level of luminescence intensity (FIG. 5).
molecule,measurement,setting,value
B1,BRET ratio,[1]; 0 mM ATP,0.0063±0.0001
same,BRET ratio,[1]; 10 mM ATP,0.0324±0.009
same,BRET ratio stability over time during luminescence intensity decay,[1],stable over time
same,maximal change in BRET ratio upon ATP saturation,[1],greater than 4 fold
same,Fold-Change in Ratio BRET,"[2]; after addition of saturating ATP, purified protein, 20 μM coelenterazine-h",5.12 ± 0.18
same,change in the BRET ratio upon saturation with ATP,"[2]; purified sensor, zero to saturating ATP",5 fold
same,dynamic range in ATP dose response,[3],5 fold
same,change in the absolute BRET ratio,[4],−71%
same,"difference in ratio signal, glucose vs metabolic inhibitors",[5],~3 fold
same,mScarlet-ε-NanoLuc ratio signal,[5]; addition of glucose,0.29±0.04
same,mScarlet-ε-NanoLuc ratio signal,[5]; metabolic inhibitors 2DG and oligomycin A,0.11±0.01
same,difference in the ratio with vs without ATP imaged through tissue and fur,[6],greater than 3 fold
same,"ratio difference between glucose and inhibitor-treated cells through tissue and fur, compared with cell suspensions in a dish",[7],same ratio difference
